The results in this text go back to paper PMC2099194 (The Journal of Cell Biology, 2007).

Like-named read-outs stand apart in the source and are kept apart here.

For experiment [1], the target named is F-actin (rabbit skeletal muscle actin) (rabbit) (UniProt P68135). The experiment is described as follows: co-sedimentation.
Experiment [2] has as its target FLAG-tagged full-length FLNa (human) (UniProt P21333). The experiment is described as follows: rotary-shadowing electron microscopy.
Experiment [3] deals with F-actin (rabbit skeletal muscle actin) (rabbit) (UniProt P68135). The experiment is described as follows: co-sedimentation. This is another data set of the same source.
For experiment [4], the target named is His-ABD-IgFLNa1-8+24 (human) (UniProt P21333). The experiment can be described thus: rotary-shadowing electron microscopy.
The target of experiment [5] is His-ABD-IgFLNa8-15+24 (human) (UniProt P21333). The experiment can be described thus: rotary-shadowing electron microscopy.
In experiment [6] the target is His-ABD-IgFLNa16-24 (human) (UniProt P21333). The experiment is described as follows: rotary-shadowing electron microscopy.
In another experiment the target is His-IgFLNa1-8+24 (human). The experiment is described as follows: rotary-shadowing electron microscopy.
For experiment [7], the target named is His-IgFLNa8-15+24 (human). The experiment is described as follows: rotary-shadowing electron microscopy.
The target in the next experiment is His-IgFLNa16-24 (human). The experiment is described as follows: rotary-shadowing electron microscopy.
The target in experiment [8] is full-length FLNa lacking hinge 1 (human) (UniProt P21333). The experiment is described as follows: rotary-shadowing electron microscopy.
Experiment [9] deals with full-length FLNa lacking hinge 2 (human) (UniProt P21333). The experiment can be described thus: rotary-shadowing electron microscopy.
The target in experiment [10] is recombinant human filamin A (FLNa), full length (human) (UniProt P21333). The experiment is described as follows: rotary-shadowing electron microscopy.
Experiment [11] deals with FLAG-tagged full-length FLNa (human, UniProt P21333 1-2647). The experiment is described as follows: pull-down.

One may read the Kd as a measure of binding affinity in units of concentration. Turning to ABD-IgFLNa1-2 (domain or fragment), in experiment [1], the Kd worked out at 11.8 µM and the stoichiometry N (ratio to actin, mol/mol) was 1.3.
The matching figures for ABD-IgFLNa1-4 (domain or fragment): 7.5 µM and 1.7.
Take ABD-IgFLNa1-15 (domain or fragment): in [1], the dissociation constant (Kd) amounted to 0.67 µM and the stoichiometry N (ratio to actin, mol/mol) was 5.4.
The matching figures for ABD-IgFLNa1-23 (domain or fragment): 0.31 µM and 12.
In the case of FLAG-ABD-IgFLNa1-8 (domain or fragment), in [1], the Kd turned out to be 7.1 µM and the stoichiometry N (ratio to actin, mol/mol) stood at 1.8.
The term stoichiometry N denotes a count of units in the complex or per binding partner. For the molecule “FLAG-tagged full-length FLNa, P21333 1-2647”, in experiment [2], the stoichiometry N stood at 2.
Consider “FLNa ABD (F-actin binding domain alone) (domain or fragment)”, for which, in experiment [3], the percent bound of total input worked out at 11.7%. Moreover, in [1], the Kd amounted to 17 µM; the percent bound of total input was 8.7%; the stoichiometry N (ratio to actin, mol/mol) was 1.
As to “His-ABD-IgFLNa1-8+24 (from UniProt P21333 1-278) (domain or fragment)”, the stoichiometry N in experiment [4] was 2.
Molecule “His-ABD-IgFLNa8-15+24 (from UniProt P21333 1-278) (domain or fragment)” showed a stoichiometry N in experiment [5] of 2.
On to “His-ABD-IgFLNa16-24 (from UniProt P21333 1-278) (domain or fragment)”, for which the stoichiometry N in experiment [6] stood at 2.
His-IgFLNa1-8+24 (domain or fragment) showed a stoichiometry N in the experiment with His-IgFLNa1-8+24 (human) of 2.
Regarding His-IgFLNa8-15+24 (domain or fragment), the stoichiometry N in experiment [7] was 2.
As to His-IgFLNa16-24 (domain or fragment), the stoichiometry N with His-IgFLNa16-24 (human) worked out at 2.
For “full-length FLNa lacking hinge 1 (from UniProt P21333 1-2647) (natural protein)”, the stoichiometry N in [8] was found to be 2.
“full-length FLNa lacking hinge 2 (from UniProt P21333 1-2647) (natural protein)” gave a stoichiometry N in experiment [9] of 2.
As to “recombinant human filamin A (FLNa), full length, P21333 1-2647”, the percent bound of total input in experiment [3] is 83.6%. In experiment [1], the KD of the high avidity site (apparent, two independent site model) came out at 0.017 µM; the KD of the low affinity site (apparent, two independent site model) came out at 0.22 µM; the percent bound of total input came to 56.3%. Moreover, in experiment [10], the stoichiometry N was 2.

B1: full-length human recombinant FilGAP (natural protein, UniProt Q8N264 1-748, looked up)
chain: MEENNDSTENPQQGQGRQNAIKCGWLRKQGGFVKTWHTRWFVLKGDQLYYFKDEDETKPLGTIFLPGNKVSEHPCNEENPGKFLFEVVPGGDRDRMTANHESYLLMASTQNDMEDWVKSIRRVIWGPFGGGIFGQKLEDTVRYEKRYGNRLAPMLVEQCVDFIRQRGLKEEGLFRLPGQANLVKELQDAFDCGEKPSFDSNTDVHTVASLLKLYLRELPEPVIPYAKYEDFLSCAKLLSKEEEAGVKELAKQVKSLPVVNYNLLKYICRFLDEVQSYSGVNKMSVQNLATVFGPNILRPKVEDPLTIMEGTVVVQQLMSVMISKHDCLFPKDAELQSKPQDGVSNNNEIQKKATMGQLQNKENNNTKDSPSRQCSWDKSESPQRSSMNNGSPTALSGSKTNSPKNSVHKLDVSRSPPLMVKKNPAFNKGSGIVTNGSFSSSNAEGLEKTQTTPNGSLQARRSSSLKVSGTKMGTHSVQNGTVRMGILNSDTLGNPTNVRNMSWLPNGYVTLRDNKQKEQAGELGQHNRLSTYDNVHQQFSMMNLDDKQSIDSATWSTSSCEISLPENSNSCRSSTTTCPEQDFFGGNFEDPVLDGPPQDDLSHPRDYESKSDHRSVGGRSSRATSSSDNSETFVGNSSSNHSALHSLVSSLKQEMTKQKIEYESRIKSLEQRNLTLETEMMSLHDELDQERKKFTMIEIKMRNAERAKEDAEKRNDMLQKEMEQFFSTFGELTVEPRRTERGNTIWIQ
Take B1: in [11], the binding result is on record as “binds”.
